Test results: the supplement of paper PMC9233669
This sample holds only a part of the variants without activity.

How the values were obtained:
[1] = tested on: biotinyl-Phe-oxazolone; assay: self-aminoacylation, catalytic enhancement (BFO) (fold over background); higher = more active; k-Seq, kA / k0A0; sequences stand for … in GGGAAUGGAUCCACAUCUACGAAUUC…UUCACUGCAGACUUGACGAAGCUG
Summary of the method: (§1)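 Mutagenized RNA pools (0.43 μM; 21-nt variable region) were treated with 2–1250 μM of each biotinyl-aminoacyl-oxazolone. Conditions were 50 μL HEPES/NaCl/KCl/MgCl2/CaCl2 buffer, 5% acetonitrile, pH 6.9–7.0, room temperature, 90 minutes. Catalytic enhancement, the median kA relative to the uncatalyzed rate, was derived from streptavidin capture, qPCR and Illumina sequencing.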

[2] = tested on: biotinyl-Ile-oxazolone; assay: self-aminoacylation, catalytic enhancement (BIO) (fold over background); higher = more active; k-Seq, kA / k0A0; sequences stand for … in GGGAAUGGAUCCACAUCUACGAAUUC…UUCACUGCAGACUUGACGAAGCUG
Summary of the method: as §1

[3] = tested on: biotinyl-Leu-oxazolone; assay: self-aminoacylation, catalytic enhancement (BLO) (fold over background); higher = more active; k-Seq, kA / k0A0; sequences stand for … in GGGAAUGGAUCCACAUCUACGAAUUC…UUCACUGCAGACUUGACGAAGCUG
Summary of the method: as §1

[4] = tested on: biotinyl-Val-oxazolone; assay: self-aminoacylation, catalytic enhancement (BVO) (fold over background); higher = more active; k-Seq, kA / k0A0; sequences stand for … in GGGAAUGGAUCCACAUCUACGAAUUC…UUCACUGCAGACUUGACGAAGCUG
Summary of the method: as §1

[5] = tested on: biotinyl-Trp-oxazolone; assay: self-aminoacylation, catalytic enhancement (BWO) (fold over background); higher = more active; k-Seq, kA / k0A0; sequences stand for … in GGGAAUGGAUCCACAUCUACGAAUUC…UUCACUGCAGACUUGACGAAGCUG
Summary of the method: as §1

[6] = tested on: biotinyl-Met-oxazolone; assay: self-aminoacylation, catalytic enhancement (BMO) (fold over background); higher = more active; k-Seq, kA / k0A0; sequences stand for … in GGGAAUGGAUCCACAUCUACGAAUUC…UUCACUGCAGACUUGACGAAGCUG
Summary of the method: as §1

Sequence | self-aminoacylation [1] | self-aminoacylation [2] | self-aminoacylation [3] | self-aminoacylation [4] | self-aminoacylation [5] | self-aminoacylation [6]
CUUCUUCAAACAAUCGGUAUG [Fam1A.1 aminoacylation ribozyme variant] | 9.62 | 0.784 | 0.779 | 0.66 | 4.71 | 0.647
CUUCUUCAAACAAUCGGUCAG [Fam1A.1 aminoacylation ribozyme variant] | 5.5 | 0.818 | 0.623 | 0.734 | 2.59 | 0.655
CUUCUUCAAACAAUCGGUCUG [Fam1A.1 aminoacylation ribozyme variant] | 35.5 | 0.898 | 1.41 | 0.902 | 17.6 | 0.996
CUUCUUCAAACAGUCGGUCUG [Fam1A.1 aminoacylation ribozyme variant] | 0.711 | 0.697 | 0.803 | 0.771 | 0.848 | 0.821
CUUCUUCAAGCAAUCGGUCUG [Fam1A.1 aminoacylation ribozyme variant] | 3.14 | 0.745 | 0.978 | 0.944 | 2.18 | 0.909
CUUCUUCACACAAUCGGUCUG [Fam1A.1 aminoacylation ribozyme variant] | 0.889 | 0.714 | 0.775 | 0.782 | 0.81 | 0.749
CUUCUUCAGACAAUCGGUCUG [Fam1A.1 aminoacylation ribozyme variant] | 0.958 | 0.76 | 0.606 | 0.751 | 0.559 | 0.651
GAGAUUGCUAAUAGUCGCAAG [Fam3.1 aminoacylation ribozyme variant] | 1.8 | 1.88 | 1.52 | 1.98 | 2.94 | 1.67
GAGUAUGCUAAUAGUCGCAAG [Fam3.1 aminoacylation ribozyme variant] | 6.5 | 1.91 | 1.45 | 1.61 | 4.13 | 1.49
GAGUUUGCUAACAGUCGCAAG [Fam3.1 aminoacylation ribozyme variant] | 10.7 | 1.4 | 1.3 | 1.41 | 5.6 | 1.62
GAGUUUGCUAAUAGGCGCAAG [Fam3.1 aminoacylation ribozyme variant] | 1.4 | 0.982 | 1.02 | 0.836 | 1.35 | 0.961
GAGUUUGCUAAUAGUCACAAG [Fam3.1 aminoacylation ribozyme variant] | 11.7 | 1.84 | 1.36 | 1.48 | 4.25 | 1.62
GAGUUUGCUAAUAGUCGGAAG [Fam3.1 aminoacylation ribozyme variant] | 11.6 | 1.38 | 1.16 | 1.38 | 4.68 | 1.6
GCACACCUCAAGCAAUCGGUC [Fam1B.1 aminoacylation ribozyme variant] | 2.09 | 1.4 | 1.23 | 1.73 | 2.46 | 1.3
GCACACUUCAAGCAAUCGGCC [Fam1B.1 aminoacylation ribozyme variant] | 4.88 | 3.36 | 3.49 | 3.45 | 6.96 | 2.99
GCACACUUCAAGCACUCGGUC [Fam1B.1 aminoacylation ribozyme variant] | 4.05 | 2.02 | 1.94 | 2.25 | 3.42 | 2.44
GCACACUUCAAUCAAUCGGUC [Fam1B.1 aminoacylation ribozyme variant] | 34.4 | 1.73 | 1.98 | 1.69 | 26.4 | 1.58
GCACACUUCACGCAAUCGGUC [Fam1B.1 aminoacylation ribozyme variant] | 10.1 | 2.5 | 1.93 | 2.22 | 3.02 | 2
GCACACUUCAGGCAAUCGGUC [Fam1B.1 aminoacylation ribozyme variant] | 3.06 | 2.21 | 1.67 | 2.42 | 2.39 | 2.04
GCACCCUUCAAGCAAUCGGUC [Fam1B.1 aminoacylation ribozyme variant] | 4.04 | 1.32 | 1.45 | 1.47 | 4.63 | 1.22
GCGCACUUCAAGCAAUCGGUC [Fam1B.1 aminoacylation ribozyme variant] | 41.1 | 2.12 | 2.65 | 2.2 | 29.6 | 2.04
GCGUUUGCUAAUAGUCGCAAG [Fam3.1 aminoacylation ribozyme variant] | 4.9 | 2.09 | 2.65 | 2.05 | 4.24 | 2.34
GGACACUUCAAGCAAUCGGUC [Fam1B.1 aminoacylation ribozyme variant] | 26.7 | 2.38 | 2.4 | 2.29 | 22.5 | 2.13
